# Assay results published in patent publication US20230227838A1, “ENHANCED CELL SURVIVAL AGAINST BIOTIC AND ABIOTIC STRESSES THROUGH SALICYLICK ACID-INDUCED NPR1 CONDENSATES” (priority 2020, published 2023).
# Columns and labels:
# [1] = test system: cytoplasmic condensates (SINCs); assay: Confocal imaging of localization and condensate (body) formation of GFP-fused NPR proteins and variants; format: cell-based, Nicotiana benthamiana; conditions: for SA-induced cytoplasmic body/condensate (SINC) formation: 5 mM SA for 2 hr
# Experimental: (§1) Plant transformation: For plant transformations, the Agrobacterium tumefaciens strain GV3101 was transformed with plant binary vectors carrying the indicated transgenes. For stable expression in Arabidopsis, a floral dipping method was used. For transient expression in N benthamiana, the Agrobacterium carrying the indicated construct was cultured overnight at 28° C. in Luria-Bertani (LB) broth medium supplemented with appropriate antibiotics: spectinomycin (100 μg/ml), kanamycin (50 μg/ml), gentamycin (50 μg/ml), and rifampicin (25 μg/ml). The obtained culture was re-inoculated at 1:10 into fresh growth media with antibiotics and grown for another 4 hr. Cells were then spun down at 1,600 g for 10 min, and inoculum was prepared by resuspending cells to OD600 nm=1 in double distilled water (DDW) containing 200 μM acetosyringone (Sigma). Unless otherwise stated, for co-IP, co-localization, and BiFC assays in N. benthamiana, the proteins were co-expressed at 1:1 mixture of the relevant Agrobacteria inoculums. In all BiFC assays, the pair of YN/YC fusions was co-expressed together with free mCherry to mark the cytoplasm and nucleus, mCherry-NLS to mark the nucleus only, or mCherry-fused test proteins for co-localization analysis. The inoculum was pressure infiltrated into N. benthamiana leaves at the abaxial side using 1 ml syringe without the needle. Due to low overall levels of NPR1-GFP in transgenic plants, a transient expression assay in Arabidopsis seedlings was used to monitor NPR1-GFP subcellular localization after SA treatment (FIG. 2B). To limit the imaging time in this transient assay (2 hours), a higher baseline SA concentration had to be used. Seeds of WT (Col-0) Arabidopsis were germinated on solid half-strength Murashige and Skoog (1/2 MS) medium and grown for 4 days. Agrobacterium carrying the indicated constructs was grown overnight in LB medium supplemented with appropriate antibiotics. The obtained culture was re-inoculated at 1:10 into virulence induction medium [50.78 mM MES, 0.5% Glucose, 1.734 mM NaH2PO4, 5% of 20X-AB mix (373.9 mM NH4C1, 24.34 mM MgSO4, 40.23 mM KCl, 1.36 mM CaCl2 and 0.18 mM FeSO4·7H2O), 200 μM acetosyringone] supplemented with 25 μg/ml rifampicin and grown for another 24 hr at 28° C. to OD600=0.8 (inoculum). Seedlings were vacuum-infiltrated with the inoculum, and at 48 hpi (hours post inoculation), treatments were performed by submerging the transformed seedlings in water or SA solution at indicated concentrations for 2 hr. Entire cotyledons were sampled for microscopy.
# Confocal laser scanning microscopy. Unless otherwise indicated, all imaging data and micrographs for single protein imaging, co-localizations, BiFC and time-lapse were obtained from the transient expression in N. benthamiana using the relevant Agrobacteria strains. All imaging was done with confocal laser scanning fluorescence microscopy using Zeiss 880 airyscan inverted confocal microscope with a 40×/1.2 water correction objective. GFP (eGFP) was excited with a 488 nm argon laser and emission was collected with a 505-530 nm band pass filter. YFP was excited with an argon laser using a 514 nm beam splitter, and emission was detected with a 520-555 nm band pass filter. mCherry was excited with a 561 nm diode laser, and emission was detected with a 575-615 nm band pass filter. When eGFP/YFP were imaged together with mCherry, a spectral GASP detector was used to collect emission from eGFP/YFP. Propidium iodide (PI) was excited with 488 nm argon laser and emission was detected with a 590-620 nm band pass filter. Time-lapse imaging was carried out on live leaf tissue samples from N. benthamiana plants transiently expressing the protein of interest. Image acquisition was done in 5 min intervals for the duration of 2 hr by scanning 30 consecutive focal planes along the Z-axis covering the entire thickness of an epidermal cell. Z-projection was done to each time frame stack before composing a final time-lapse file. […]
# [2] = molecular target: sim3-GFP (Arabidopsis thaliana) (UniProt P93002); assay: sim3-GFP IP, LC-MS/MS
# CUL3 = assay: Co-IP of Myc-CUL3 with HA-fused NPR1 or variants; format: binding, Arabidopsis thaliana; conditions: absence of SA
# Experimental: as §1
# Protein analysis and IP. Recombinant protein analysis was performed using transient expression in N. benthamiana, or stable over-expression in transgenic Arabidopsis, or expression in E. coli. Total protein extraction from plants was performed by homogenizing leaf tissue in the plant extraction buffer [50 mM Tris-HCl (pH 7.5), 150 mM NaCl, 5 mM EDTA, 0.2% Triton X-100, 0.2% Nonidet P-40] supplemented with 1 mM PMSF, 100 μM MG132, and EDTA-free protease inhibitor cocktail (Roche). For ubiquitinated protein analysis in plants, 100 μM of DUB (deubiquitinase) inhibitor (LifeSensors) and 10 mM NEM were added. Next, the lysates were cleared by centrifugation at 14,000 rpm for 15 min followed by filtering through a 0.2 μm filter. […] Pull-downs or IP experiments were done on total protein extracts by incubating protein samples in the lysis buffer overnight with indicated affinity tag or antibody conjugated to agarose or magnetic beads: GFP-trap agarose beads (Chromotek) for GFP fusions; RFP-trap agarose beads (Chromotek) for mCherry fusions; anti-HA magnetic beads (ThermoFisher) for HA tag fusions; anti-DYKDDDDK coupled magnetic agarose (ThermoFisher) for FLAG tag fusions; and glutathione magnetic agarose (ThermoFisher) for GST fusions. Unless otherwise indicated, after pull-down/IP, beads were washed 3 times and proteins were eluted by boiling in the 2×SDS sample buffer. […]
# Sequence of sim3-GFP (Arabidopsis thaliana) (P93002 other isoform, or with tags, fused parts or gaps): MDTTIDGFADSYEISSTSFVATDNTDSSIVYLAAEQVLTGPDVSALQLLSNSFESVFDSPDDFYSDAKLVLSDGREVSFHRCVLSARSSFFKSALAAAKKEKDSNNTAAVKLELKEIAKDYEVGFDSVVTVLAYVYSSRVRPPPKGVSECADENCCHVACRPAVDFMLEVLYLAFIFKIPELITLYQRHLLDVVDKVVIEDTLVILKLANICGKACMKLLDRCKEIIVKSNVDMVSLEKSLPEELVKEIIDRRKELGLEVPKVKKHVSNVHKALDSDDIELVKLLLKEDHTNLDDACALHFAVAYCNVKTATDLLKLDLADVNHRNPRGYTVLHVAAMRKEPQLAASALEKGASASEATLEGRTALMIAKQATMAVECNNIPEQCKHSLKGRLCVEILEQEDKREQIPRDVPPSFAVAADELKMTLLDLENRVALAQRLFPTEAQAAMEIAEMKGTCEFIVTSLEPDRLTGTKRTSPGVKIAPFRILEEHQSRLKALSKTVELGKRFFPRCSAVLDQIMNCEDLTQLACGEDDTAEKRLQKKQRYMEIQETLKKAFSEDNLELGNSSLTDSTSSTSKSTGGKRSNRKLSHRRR
molecule,measurement,setting,value
"NPR4: Arabidopsis NPR1 paralog AtNPR4 (AT4G19660) (protein, UniProt Q5ICL9 1-574, looked up) Regulatory protein NPR4: MAATAIEPSSSISFTSSHLSNPSPVVTTYHSAANLEELSSNLEQLLTNPDCDYTDAEIIIEEEANPVSVHRCVLAARSKFFLDLFKKDKDSSEKKPKYQMKDLLPYGNVGREAFLHFLSYIYTGRLKPFPIEVSTCVDSVCAHDSCKPAIDFAVELMYASFVFQIPDLVSSFQRKLRNYVEKSLVENVLPILLVAFHCDLTQLLDQCIERVARSDLDRFCIEKELPLEVLEKIKQLRVKSVNIPEVEDKSIERTGKVLKALDSDDVELVKLLLTESDITLDQANGLHYAVAYSDPKVVTQVLDLDMADVNFRNSRGYTVLHIAAMRREPTIIIPLIQKGANASDFTFDGRSAVNICRRLTRPKDYHTKTSRKEPSKYRLCIDILEREIRRNPLVSGDTPTCSHSMPEDLQMRLLYLEKRVGLAQLFFPAEANVAMDVANVEGTSECTGLLTPPPSNDTTENLGKVDLNETPYVQTKRMLTRMKALMKTVETGRRYFPSCYEVLDKYMDQYMDEEIPDMSYPEKGTVKERRQKRMRYNELKNDVKKAYSKDKVARSCLSSSSPASSLREALENPT",SA-induced cytoplasmic body/condensate (SINC) formation,[1],fail to form cytoplasmic condensates
"TAT3, tyrosine aminotransferase 3 (protein, UniProt Q9SK47 1-445, looked up) Probable aminotransferase TAT3: MASNGVTNCNANANVWRFKGNGATSDAAAVTLRKLAFGMFKNCTMNSGKTILFPTPGEPSAHSNFRTCPEAEEAVAAAARSGMANSYAPSPGVFKARRAVAEYLNGELPTKLKAEDVYITGGCNQAIEIVIDSLAGNPSANILLPRPGYPHYDARAVYSGLEIRKYDLLPESDWEINLDGLEAAADENTVAMVIINPNNPCGNVYTYDHLNKVAEMARKLGIMIISDEVYDHVVYGDKPFIPMGKFASIAPVITLGSISKGWVNPGWRVGWIAMNDPNGIFVSTGVVQAIEDFLDLTPQPSFILQEALPDILEKTPKEFFEKKIKAMRRNVELSCERLKDIPCLFCPKKPESCSYLWLKLDTSMLNNIKNDFDFCTKLVSEESLILIPGVALGAENWVRISIGTDESVVQEIFDRLKGFYDRHAISKEAIKLSGHAINQIVVSVN",Normalized Fold Change: SA vs Mock,[2],18.5 fold
"NPR3: Arabidopsis NPR1 paralog AtNPR3 (AT5G45110) (protein, UniProt Q8L746 1-586, looked up) Regulatory protein NPR3: MATLTEPSSSLSFTSSHFSYGSIGSNHFSSSSASNPEVVSLTKLSSNLEQLLSNSDCDYSDAEIIVDGVPVGVHRCILAARSKFFQDLFKKEKKISKTEKPKYQLREMLPYGAVAHEAFLYFLSYIYTGRLKPFPLEVSTCVDPVCSHDCCRPAIDFVVQLMYASSVLQVPELVSSFQRRLCNFVEKTLVENVLPILMVAFNCKLTQLLDQCIERVARSDLYRFCIEKEVPPEVAEKIKQLRLISPQDEETSPKISEKLLERIGKILKALDSDDVELVKLLLTESDITLDQANGLHYSVVYSDPKVVAEILALDMGDVNYRNSRGYTVLHFAAMRREPSIIISLIDKGANASEFTSDGRSAVNILRRLTNPKDYHTKTAKGRESSKARLCIDILEREIRKNPMVLDTPMCSISMPEDLQMRLLYLEKRVGLAQLFFPTEAKVAMDIGNVEGTSEFTGLSPPSSGLTGNLSQVDLNETPHMQTQRLLTRMVALMKTVETGRRFFPYGSEVLDKYMAEYIDDDILDDFHFEKGSTHERRLKRMRYRELKDDVQKAYSKDKESKIARSCLSASSSPSSSSIRDDLHNTT",SA-induced cytoplasmic body/condensate (SINC) formation,[1],fail to form cytoplasmic condensates
"DMR1, HSK, homoserine kinase (protein, UniProt Q8L7R2 35-370, looked up) Homoserine kinase: CRASVQTLVAVEPEPVFVSVKTFAPATVANLGPGFDFLGCAVDGLGDHVTLRVDPSVRAGEVSISEITGTTTKLSTNPLRNCAGIAAIATMKMLGIRSVGLSLDLHKGLPLGSGLGSSAASAAAAAVAVNEIFGRKLGSDQLVLAGLESEAKVSGYHADNIAPAIMGGFVLIRNYEPLDLKPLRFPSDKDLFFVLVSPDFEAPTKKMRAALPTEIPMVHHVWNSSQAAALVAAVLEGDAVMLGKALSSDKIVEPTRAPLIPGMEAVKKAALEAGAFGCTISGAGPTAVAVIDSEEKGQVIGEKMVEAFWKVGHLKSVASVKKLDNVGARLVNSVSR",Normalized Fold Change: SA vs Mock,[2],2.16 fold
"BTB: BTB domain of NPR1 corresponding to amino acids 65-144 of SEQ ID NO: 1 (protein, listed as Arabidopsis thaliana) SDAKLVLSDGREVSFHRCVLSARSSFFKSALAAAKKEKDSNNTAAVKLELKEIAKDYEVGFDSVVTVLAYVYSSRVRPPP",CUL3 pull-down in co-IP in the absence of SA,CUL3,sufficient to strongly pulldown CUL3 even in the absence of SA
"NPR6: development-associated NPR1 paralog AtNPR6 (AT3G57130) (protein, UniProt Q9M1I7 1-467, looked up) Regulatory protein NPR6: MSNTFEESLKSMSLDYLNLLINGQAFSDVTFSVEGRLVHAHRCILAARSLFFRKFFCESDPSQPGAEPANQTGSGARAAAVGGVIPVNSVGYEVFLLLLQFLYSGQVSIVPHKHEPRSNCGDRGCWHTHCTAAVDLSLDILAAARYFGVEQLALLTQKHLTSMVEKASIEDVMKVLIASRKQDMHQLWTTCSYLIAKSGLPQEILAKHLPIELVAKIEELRLKSSMPLRSLMPHHHDLTSTLDLEDQKIRRMRRALDSSDVELVKLMVMGEGLNLDESLALIYAVENCSREVVKALLELGAADVNYPAGPTGKTALHIAAEMVSPDMVAVLLDHHADPNVQTVDGITPLDILRTLTSDFLFKGAIPGLTHIEPNKLRLCLELVQSAALVISREEGNNNSNDNNTMIYPRMKDEHTSGSSLDSRLVYLNLGATNRDIGDDNSNQREGMNLHHHHHDPSTMYHHHHHHF",condensate formation in the absence of SA (constitutive),[1]; no SA treatment / mock,constitutive bodies
"NPR2: Arabidopsis NPR1 paralog AtNPR2 (AT4G26120) (protein, UniProt Q9SZI3 1-600, looked up) Regulatory protein NPR2: MATTTTTTTARFSDSYEFSNTSGNSFFAAESSLDYPTEFLTPPEVSALKLLSNCLESVFDSPETFYSDAKLVLAGGREVSFHRCILSARIPVFKSALATVKEQKSSTTVKLQLKEIARDYEVGFDSVVAVLAYVYSGRVRSPPKGASACVDDDCCHVACRSKVDFMVEVLYLSFVFQIQELVTLYERQFLEIVDKVVVEDILVIFKLDTLCGTTYKKLLDRCIEIIVKSDIELVSLEKSLPQHIFKQIIDIREALCLEPPKLERHVKNIYKALDSDDVELVKMLLLEGHTNLDEAYALHFAIAHCAVKTAYDLLELELADVNLRNPRGYTVLHVAAMRKEPKLIISLLMKGANILDTTLDGRTALVIVKRLTKADDYKTSTEDGTPSLKGGLCIEVLEHEQKLEYLSPIEASLSLPVTPEELRMRLLYYENRVALARLLFPVETETVQGIAKLEETCEFTASSLEPDHHIGEKRTSLDLNMAPFQIHEKHLSRLRALCKTVELGKRYFKRCSLDHFMDTEDLNHLASVEEDTPEKRLQKKQRYMELQETLMKTFSEDKEECGKSSTPKPTSAVRSNRKLSHRRLKVDKRDFLKRPYGNGD",SA-induced cytoplasmic body/condensate (SINC) formation,[1],fail to form cytoplasmic condensates
